Data taken from PMC12809912.
Where “and” joins values, the source holds several entries; their conditions need not be identical. Equal values may be shown once.

B1: mouse monoclonal antibody clone 1A8 (anti-DEFA5) (antibody, V domains shown)
VH: QVQLQQSGAELVRPGASVKMSCKALGYTFFDYEMHWMKQTPVYGLEWIGAIHPGSGDTAYNQKFKGKATLTADKSSNTAYMELSSLTSEDSAVYYCTREGTVVAPFDYWGQGTTLTVSS
VL: DVLMTQTPLSLPVSLGDQASISCRSSQSIVHSNGNTYLEWYLQKPGQSPKLLINKVSNRFSGVPDRFSGSGSGTDFTLKISRVEAEDLGVYYCFQGSYVPYTFGGGTKLEIK
B2: mouse monoclonal antibody clone 4F5 (anti-DEFA5) (antibody, V domains shown)
VH: B1 VH
VL: B1 VL

Experiments:
[1] = target: mouse monoclonal antibody clone 1A8 (anti-DEFA5); assay: indirect ELISA; conditions: chain shown with the change;; parent: est. 2.6; read off a plot
[2] = target: mouse monoclonal antibody clone 4F5 (anti-DEFA5); assay: indirect ELISA; conditions: chain shown with the change;; parent: est. 2.2; read off a plot
[3] = target: recombinant His-tagged human alpha-defensin 5 (DEFA5) construct, residues 23-94 behind a soluble fusion partner (human); assay: ELISA; indirect ELISA: recombinant DEFA5 coated at 100 ng/mL in carbonate-bicarbonate buffer pH 9.6, antibodies 250-3.9 nM 1 h at room temperature; one-site specific binding fit; two experiments
recombinant His-tagged human alpha-defensin 5 (DEFA5) construct, residues 23-94 behind a soluble fusion partner (human), sequence (Q01523 23-94): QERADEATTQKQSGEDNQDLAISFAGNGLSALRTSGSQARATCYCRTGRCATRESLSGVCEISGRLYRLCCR

[4] = target: T1, synthetic DEFA5 peptide residues 54-66 (…) (human); assay: SPR; synthetic peptides 54-66 (for 1A8) and 52-66 (for 4F5); who was immobilised is not told (Fig. S5)
T1 sequence (peptide): LRTSGSQARATCY

[5] = target: T2, synthetic DEFA5 peptide residues 52-66 (…) (human); assay: as above
T2 sequence (peptide): SALRTSGSQARATCY

| Binder | response [1] [OD450nm] | response [2] [OD450nm] | Kd [3] | Kd [4] [µM] | Kd [5] [µM] |
| --- | --- | --- | --- | --- | --- |
| RATCYCRTGRCATR [peptide No. 57 of the overlapping library, DEFA5 amino acids 61-75 (…) A1del] | 2.6 | 2.3 |  |  |  |
| B1 |  |  | 0.0421 µM and 0.0455 µM | 303 |  |
| B2 |  |  | 0.0534 µM and 0.0566 µM |  | 4800 |
